Results on two substances are retold here after patent US5008241A, “Novel insulin peptides” (Novo Nordisk A/S, priority 1985, dated 1991).

For data set [1] the following is noted: from Diabetes Care, Vol. 6/Supplement 1 (1983), 4; cited from earlier work.
Data set [2] is described as follows: Deamidation products formed on storage at 25° C., pH 3, DISC PAGE analysis. The format is physicochemical. The following applies: 0.24 mM analog, 3 Zn++ per hexamer.
Protocol: Deamidation products formed per month after storage 25 at 25° C. and a pH value of 3.
The compositions tested were as follows: 0.24 mM insulin analog, 0.3% (w/v) m-cresol, 1.6% (w/v) glycerol, 3 Zn^++ per insulin hexamer and 0.01 M sodium acetate to obtain a pH value of 3. The determinations were made using DISC PAGE analysis.
Data set [3] in a line: Di- and polymerization products formed on storage at 25 C, HPSEC. The format is physicochemical. The following applies: 3 Zn++ per hexamer.
Protocol: The compositions tested were as follows: 0.24 mM insulin analog, 0.3% /w/v) m-cresol, 1.6% (w/v) glycerol, 0.01 M sodium acetate and 3 Zn^++ per insulin hexamer. The determination was made using HPSEC (high performance size exclusion chromatography).
A reference insulin having Asn^A21 is included for comparison.

Consider “monocomponent procine insulin: monocomponent porcine insulin”, for which, in data set [1], the established potency is on record as 28.5 U/mg dry substance.

Take Arg^B27 Thr^B30 --NH2 human insulin: in data set [2], the “Deamidation products formed per month” value is recorded as “approx. 10%”. Also, the “Di- and polymerization products formed per month” value in data set [3] (pH of formulation 3.0, 0.24 mM analog) is 0.15%; in data set [3] (pH of formulation 4.0, 0.24 mM analog) it was 0.62%; in data set [3] (pH of formulation 5.0, 0.24 mM analog), 1.4%.
